The target in this test is T1, F/IX delta 111-140 (human; human adenovirus type 5, UniProt P03372 553-595).
T1 construct: domain: F domain; N-terminally F-tagged pIX truncated after residue 110 (lacks half of the leucine-repeat)
T1 sequence: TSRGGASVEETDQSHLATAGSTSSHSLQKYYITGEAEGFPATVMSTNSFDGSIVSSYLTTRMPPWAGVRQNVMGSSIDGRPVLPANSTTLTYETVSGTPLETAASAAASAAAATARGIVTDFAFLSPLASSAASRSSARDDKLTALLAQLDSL
As to the kind of experiment: co-immunoprecipitation with anti-F antibody from A549 cell extracts, Western blot with anti-pIX. On the technique in general: In western blotting, separated proteins are transferred to a membrane and probed.

B1: non-tagged wild type adenovirus type 5 protein IX (other)
chain: MSTNSFDGSIVSSYLTTRMPPWAGVRQNVMGSSIDGRPVLPANSTTLTYETVSGTPLETAASAAASAAAATARGIVTDFAFLSPLASSAASRSSARDDKLTALLAQLDSLTRELNVVSQQLLDLRQQVSALKASSPPNAV
notes: tested in cell extracts; also called wt pIX; untagged wt pIX
Take B1: the binding result is on record as “no binding”.
